Experimental data as given in US20170275666A1, “Methods for Preparing Rebaudioside I and Uses” (The Coca-Cola Company, priority 2014, published 2017).

B1: UGT76G1var35: UGT76G1 variant, mutations T284L_F314S_S357N (protein, UniProt Q6VAB4 1-458, looked up, variant T284L F314S S357N)
UDP-glycosyltransferase 76G1: MENKTETTVRRRRRIILFPVPFQGHINPILQLANVLYSKGFSITIFHTNFNKPKTSNYPHFTFRFILDNDPQDERISNLPTHGPLAGMRIPIINEHGADELRRELELLMLASEEDEEVSCLITDALWYFAQSVADSLNLRRLVLMTSSLFNFHAHVSLPQFDELGYLDPDDKTRLEEQASGFPMLKVKDIKSAYSNWQILKEILGKMIKQTKASSGVIWNSFKELEESELETVIREIPAPSFLIPLPKHLTASSSSLLDHDRTVFQWLDQQPPSSVLYVSFGSLSEVDEKDFLEIARGLVDSKQSFLWVVRPGSVKGSTWVEPLPDGFLGERGRIVKWVPQQEVLAHGAIGAFWTHNGWNSTLESVCEGVPMIFSDFGLDQPLNARYMSDVLKVGVYLENGWERGEIANAIRRVMVDEEGEYIRQNARVLKQKADVSLMKGGSSYESLESLVSYISSL
B2: UGT76G1var36: UGT76G1 variant, mutations F265L_L379A_V396F (protein, UniProt Q6VAB4 1-458, looked up, variant F265L L379A V396F)
UDP-glycosyltransferase 76G1: MENKTETTVRRRRRIILFPVPFQGHINPILQLANVLYSKGFSITIFHTNFNKPKTSNYPHFTFRFILDNDPQDERISNLPTHGPLAGMRIPIINEHGADELRRELELLMLASEEDEEVSCLITDALWYFAQSVADSLNLRRLVLMTSSLFNFHAHVSLPQFDELGYLDPDDKTRLEEQASGFPMLKVKDIKSAYSNWQILKEILGKMIKQTKASSGVIWNSFKELEESELETVIREIPAPSFLIPLPKHLTASSSSLLDHDRTVLQWLDQQPPSSVLYVSFGSTSEVDEKDFLEIARGLVDSKQSFLWVVRPGFVKGSTWVEPLPDGFLGERGRIVKWVPQQEVLAHGAIGAFWTHSGWNSTLESVCEGVPMIFSDFGADQPLNARYMSDVLKVGFYLENGWERGEIANAIRRVMVDEEGEYIRQNARVLKQKADVSLMKGGSSYESLESLVSYISSL
B3: UGT76G1var38: UGT76G1 variant, mutations F41L_I295M_F377C (protein, UniProt Q6VAB4 1-458, looked up, variant F41L I295M F377C)
UDP-glycosyltransferase 76G1: MENKTETTVRRRRRIILFPVPFQGHINPILQLANVLYSKGLSITIFHTNFNKPKTSNYPHFTFRFILDNDPQDERISNLPTHGPLAGMRIPIINEHGADELRRELELLMLASEEDEEVSCLITDALWYFAQSVADSLNLRRLVLMTSSLFNFHAHVSLPQFDELGYLDPDDKTRLEEQASGFPMLKVKDIKSAYSNWQILKEILGKMIKQTKASSGVIWNSFKELEESELETVIREIPAPSFLIPLPKHLTASSSSLLDHDRTVFQWLDQQPPSSVLYVSFGSTSEVDEKDFLEMARGLVDSKQSFLWVVRPGFVKGSTWVEPLPDGFLGERGRIVKWVPQQEVLAHGAIGAFWTHSGWNSTLESVCEGVPMIFSDCGLDQPLNARYMSDVLKVGVYLENGWERGEIANAIRRVMVDEEGEYIRQNARVLKQKADVSLMKGGSSYESLESLVSYISSL
B4: UGT76G1var40: UGT76G1 variant, mutations T263S_Q266E_S375R (protein, UniProt Q6VAB4 1-458, looked up, variant T263S Q266E S375R)
UDP-glycosyltransferase 76G1: MENKTETTVRRRRRIILFPVPFQGHINPILQLANVLYSKGFSITIFHTNFNKPKTSNYPHFTFRFILDNDPQDERISNLPTHGPLAGMRIPIINEHGADELRRELELLMLASEEDEEVSCLITDALWYFAQSVADSLNLRRLVLMTSSLFNFHAHVSLPQFDELGYLDPDDKTRLEEQASGFPMLKVKDIKSAYSNWQILKEILGKMIKQTKASSGVIWNSFKELEESELETVIREIPAPSFLIPLPKHLTASSSSLLDHDRSVFEWLDQQPPSSVLYVSFGSTSEVDEKDFLEIARGLVDSKQSFLWVVRPGFVKGSTWVEPLPDGFLGERGRIVKWVPQQEVLAHGAIGAFWTHSGWNSTLESVCEGVPMIFRDFGLDQPLNARYMSDVLKVGVYLENGWERGEIANAIRRVMVDEEGEYIRQNARVLKQKADVSLMKGGSSYESLESLVSYISSL
B5: UGT76G1var41: UGT76G1 variant, mutations L246F_A385T_K393G (protein, UniProt Q6VAB4 1-458, looked up, variant L246F A385T K393G)
UDP-glycosyltransferase 76G1: MENKTETTVRRRRRIILFPVPFQGHINPILQLANVLYSKGFSITIFHTNFNKPKTSNYPHFTFRFILDNDPQDERISNLPTHGPLAGMRIPIINEHGADELRRELELLMLASEEDEEVSCLITDALWYFAQSVADSLNLRRLVLMTSSLFNFHAHVSLPQFDELGYLDPDDKTRLEEQASGFPMLKVKDIKSAYSNWQILKEILGKMIKQTKASSGVIWNSFKELEESELETVIREIPAPSFLIPFPKHLTASSSSLLDHDRTVFQWLDQQPPSSVLYVSFGSTSEVDEKDFLEIARGLVDSKQSFLWVVRPGFVKGSTWVEPLPDGFLGERGRIVKWVPQQEVLAHGAIGAFWTHSGWNSTLESVCEGVPMIFSDFGLDQPLNTRYMSDVLGVGVYLENGWERGEIANAIRRVMVDEEGEYIRQNARVLKQKADVSLMKGGSSYESLESLVSYISSL
B6: UGT76G1var1: UGT76G1 variant, mutations E224A_F314S_R334K (protein, UniProt Q6VAB4 1-458, looked up, variant E224A F314S R334K)
UDP-glycosyltransferase 76G1: MENKTETTVRRRRRIILFPVPFQGHINPILQLANVLYSKGFSITIFHTNFNKPKTSNYPHFTFRFILDNDPQDERISNLPTHGPLAGMRIPIINEHGADELRRELELLMLASEEDEEVSCLITDALWYFAQSVADSLNLRRLVLMTSSLFNFHAHVSLPQFDELGYLDPDDKTRLEEQASGFPMLKVKDIKSAYSNWQILKEILGKMIKQTKASSGVIWNSFKALEESELETVIREIPAPSFLIPLPKHLTASSSSLLDHDRTVFQWLDQQPPSSVLYVSFGSTSEVDEKDFLEIARGLVDSKQSFLWVVRPGSVKGSTWVEPLPDGFLGERGKIVKWVPQQEVLAHGAIGAFWTHSGWNSTLESVCEGVPMIFSDFGLDQPLNARYMSDVLKVGVYLENGWERGEIANAIRRVMVDEEGEYIRQNARVLKQKADVSLMKGGSSYESLESLVSYISSL
B7: UGT76G1var37: UGT76G1 variant, mutations E229A_L379G_I407V (protein, UniProt Q6VAB4 1-458, looked up, variant E229A L379G I407V)
UDP-glycosyltransferase 76G1: MENKTETTVRRRRRIILFPVPFQGHINPILQLANVLYSKGFSITIFHTNFNKPKTSNYPHFTFRFILDNDPQDERISNLPTHGPLAGMRIPIINEHGADELRRELELLMLASEEDEEVSCLITDALWYFAQSVADSLNLRRLVLMTSSLFNFHAHVSLPQFDELGYLDPDDKTRLEEQASGFPMLKVKDIKSAYSNWQILKEILGKMIKQTKASSGVIWNSFKELEESALETVIREIPAPSFLIPLPKHLTASSSSLLDHDRTVFQWLDQQPPSSVLYVSFGSTSEVDEKDFLEIARGLVDSKQSFLWVVRPGFVKGSTWVEPLPDGFLGERGRIVKWVPQQEVLAHGAIGAFWTHSGWNSTLESVCEGVPMIFSDFGGDQPLNARYMSDVLKVGVYLENGWERGEVANAIRRVMVDEEGEYIRQNARVLKQKADVSLMKGGSSYESLESLVSYISSL
B8: UGT76G1var39: UGT76G1 variant, mutations F22Y_F41L_V366I (protein, UniProt Q6VAB4 1-458, looked up, variant F22Y F41L V366I)
UDP-glycosyltransferase 76G1: MENKTETTVRRRRRIILFPVPYQGHINPILQLANVLYSKGLSITIFHTNFNKPKTSNYPHFTFRFILDNDPQDERISNLPTHGPLAGMRIPIINEHGADELRRELELLMLASEEDEEVSCLITDALWYFAQSVADSLNLRRLVLMTSSLFNFHAHVSLPQFDELGYLDPDDKTRLEEQASGFPMLKVKDIKSAYSNWQILKEILGKMIKQTKASSGVIWNSFKELEESELETVIREIPAPSFLIPLPKHLTASSSSLLDHDRTVFQWLDQQPPSSVLYVSFGSTSEVDEKDFLEIARGLVDSKQSFLWVVRPGFVKGSTWVEPLPDGFLGERGRIVKWVPQQEVLAHGAIGAFWTHSGWNSTLESICEGVPMIFSDFGLDQPLNARYMSDVLKVGVYLENGWERGEIANAIRRVMVDEEGEYIRQNARVLKQKADVSLMKGGSSYESLESLVSYISSL

Assay: Directed evolution of UGT76G1, conversion of Rebaudioside D to Rebaudioside M (round 1)
Assay type: biochemical
Settings: 0.5 mM Rebaudioside D, 2.5 mM UDP-Glucose, 100 μL fresh lysate, 30° C., pH 7.2
Source text: Starting from the amino acid sequence of UGT76G1, as is described in Genbank (AAR06912.1), different mutations at various amino acid positions were identified that could alter the activity of the enzyme for the transformation of Rebaudioside D (Reb D) to Rebaudioside M (Reb M). This list of mutations, designed by DNA2.0 ProteinGPS™ strategy, was subsequently used to synthesize 96 variant genes that contained 3, 4 or 5 of these mutations that were codon-optimized for expression in E. coli. The genes were subcloned in the pET30a+ plasmid and used for transformation of E. coli BL21 (DE3) chemically competent cells. The obtained cells were grown in Petri-dishes on solid LB medium in the presence of Kanamycin. Suitable colonies were selected and allowed to grow in liquid LB medium in tubes. Glycerol was added to the suspension as cryoprotectant and 400 μL aliquots were stored at −20° C. and at −80° C.
These storage aliquots of E. coli BL21(DE3) containing the pET30a+_UGT76G1var plasmids were thawed and added to LBGKP medium (20 g/L Luria Broth Lennox; 50 mM PIPES buffer pH 7.00; 50 mM Phosphate buffer pH 7.00; 2.5 g/L glucose and 50 mg/L of Kanamycine). This culture was allowed to shake in a 96 microtiter plate at 135 rpm at 30° C. for 8 h.
3.95 mL of production medium containing 60 g/L of Overnight Express™ Instant TB medium (Novagen®), 10 g/L of glycerol and 50 mg/L of Kanamycin was inoculated with 50 μL of above described culture. In a 48 deepwell plate the resulting culture was allowed to stir at 20° C. The cultures gave significant growth and a good OD (600 nm; 1 cm) was obtained. After 44 h, the cells were harvested by centrifugation and frozen.
Lysis was performed by addition of Bugbuster® Master mix (Novagen®) to the thawed cells and the lysate was recovered by centrifugation. Activity tests were performed with 100 μL of fresh lysate that was added to a solution of Rebaudioside D (final concentration 0.5 mM), MgCl2 (final concentration 3 mM) and UDP-Glucose (final concentration 2.5 mM) in 50 mM phosphate buffer pH 7.2.
The reaction was allowed to run at 30° C. and samples were taken after 2, 4, 7 and 24 h. to determine conversion and initial rate by HPLC (CAD detection) using the analytical method that was described above for the transformation of Rebaudioside D to Rebaudioside M. The results are depicted in the following table.

Going from B1 to B2, the “Conversion Reb D to Reb M after 24 h (%)” value rises from 0.5% to 20.0%.

Compared with B3, B4 is higher in “Conversion Reb D to Reb M after 24 h (%)” value: 8.2% for the first, 47.6% for the second.

Compared with B5, B6 is higher in “Conversion Reb D to Reb M after 24 h (%)” value: 0.8% for the first, 51.8% for the second.

First: B7
Second: B8
The “Conversion Reb D to Reb M after 24 h (%)” value of the first is higher: 39.1% for the first, 7.2% for the second.

Compared with B1, B2 is higher in “initial rate (Reb M area/min)” value: 1.8E+05 Reb M area/min for the first, 8.8E+06 Reb M area/min for the second.

Compared with B3, B4 is higher in “initial rate (Reb M area/min)” value: 3.7E+06 Reb M area/min for the first, 3.3E+07 Reb M area/min for the second.

First: B5
Second: B6
The “initial rate (Reb M area/min)” value of the first is lower: 1.4E+06 Reb M area/min for the first, 5.5E+07 Reb M area/min for the second.

Compared with B7, B8 is lower in “initial rate (Reb M area/min)” value: 2.8E+07 Reb M area/min for the first, 3.3E+06 Reb M area/min for the second.
